According to the supplement of paper PMC10567573:
± gives the standard deviation.

Assay: protein stability index of a GFP-peptide fusion (GPS, HEK-293T) (PSI 1-6); higher = more stable
[1] = treatment: DMSO, c terminus: a fixed tail appended
[2] = treatment: MLN4924 1 uM, 8 h, c terminus: a fixed tail appended
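Further: 24-mer peptide tiles fused after GFP, lentivirally expressed, FACS-sorted into six equal bins by GFP/DsRed ratio, decoded by Illumina sequencing, PSI is the read-weighted mean bin number.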

Row | Sequence | protein stability index [1] | protein stability index [2] | protein stability index (treatment: DMSO, c terminus: native) | protein stability index (treatment: MLN4924 1 uM, 8 h, c terminus: native)
1 | NLTRRFSDLGFEVKCFNDLKAEEL [CASP6] | 2.76 ± 0.46 | 3 ± 0.27 |  | 
2 | RRARINESLQELRLLLAGAEVQAK [HES6] | 2.62 ± 0.3 | 2.84 ± 0.77 |  | 
3 | CKCGECTAPRTLPSCLACNRQCLC [SPRY1] | 4.05 ± 0.2 | 4.04 ± 0.14 |  | 
4 | MPLSGTPAPNKKRKSSKLIMELTG [MYOZ1] | 3.63 ± 0.24 | 3.81 ± 0.22 |  | 
5 | EVANKDLTERKYKGDSTIRELKAK [SASS6] | 3.27 ± 0.39 | 3.27 ± 0.53 |  | 
6 | VKMDQKSKHLKEMYQELMEMCHKP [TRIM43] | 3.03 ± 0.15 | 3.13 ± 0.28 |  | 
7 | GYPAAPPAVPFAPHFLQGGPFPLP [TBX6] | 2.52 ± 0.58 | 2.7 ± 0.35 |  | 
8 | TWRLPDVSEAGGSGRLSASWEPLS [FCHO1] | 3.38 ± 0.13 | 3.24 ± 0.26 |  | 
9 | TWKVLFCSMSATFTLNFFRSGIQF [CLCN6] | 3.25 ± 0.11 | 3.2 ± 0.73 |  | 
10 | TLGASSLREERGHPLHPRHRKAVH [C6orf223] | 4.54 ± 0.25 | 4.5 ± 0.098 |  | 
11 | STMSLNIITVTLNMEKYNFLGISI [DVL3] | 3.3 ± 0.42 | 2.89 ± 0.33 |  | 
12 | TQHNFQEVMESEEFMLLPANQLID [KLHL20] | 4.43 ± 0.18 | 4.66 ± 0.24 |  | 
13 | DRDAEDQNRYLDGMVRAHGVRVSV [BET1L] | 3.85 ± 0.22 | 3.87 ± 0.29 |  | 
14 | AAAHWYGGAEMRTQHWPIRLDGQQ [MYORG] | 2.86 ± 0.15 | 2.79 ± 0.14 |  | 
15 | RPMHHEDFKEDLKKFRTKSRTWAG [CDC25A] | 3.31 ± 0.22 | 3.61 ± 0.36 |  | 
16 | YLYGILEERKNEMTQVITRTQEEK [TRIM55] | 3.6 ± 0.15 | 3.55 ± 0.31 |  | 
17 | NSTLDPHGHLILHSMHKYQPRIHL [TBX6] | 2.19 ± 0.17 | 2.34 ± 0.26 |  | 
18 | GSGYEKLGPSRDPDPLNICVFILL [RTP4] | 3.15 ± 0.2 | 2.45 ± 0.68 |  | 
19 | DFITLYQMASQSSASHYKLQVIKA [M1AP] | 2.63 ± 0.3 | 2.44 ± 0.43 |  | 
20 | SIRILDELVLPFQELQIDDNEYAY [HNF4A] | 3.46 ± 0.26 | 3.44 ± 0.26 |  | 
21 | KYSYTSTSDDNLLKNIELFDKLAL [KCTD13] | 2.63 ± 0.42 | 2.59 ± 0.26 |  | 
22 | ITLFLLGAAKGKEVCYEDLGCFSD [PNLIPRP1] | 2.74 ± 0.43 | 3.24 ± 0.43 |  | 
23 | IVTVHYGCASFIYLRPQSNYSSSQ [OR10K2] | 2.92 ± 0.39 | 2.95 ± 0.56 |  | 

Row | Sequence | protein stability index [1] | protein stability index [2] | protein stability index (treatment: DMSO, c terminus: native) | protein stability index (treatment: MLN4924 1 uM, 8 h, c terminus: native)
24 | PLEPEDALSDAEFEGEGDYEEGMY [P3H4] | 5.59 ± 0.3 | 5.44 ± 0.34 |  | 
25 | TQSLPTASASKFPSSGPVTPQPTA [AUP1] | 4.85 ± 0.22 | 4.78 ± 0.16 |  | 
26 | RASYSDGKLKAPPKPCAGNQGTQI [MLH1] | 4.05 ± 0.53 | 4.17 ± 0.14 |  | 
27 | PETMTCRLSNNQRYLFLDGDSHYE [ZFYVE21] | 2.52 ± 0.45 | 2.8 ± 0.33 |  | 
28 | LPPVSTSFTTGGLRIPFPRDCGEE [TNXB] | 4.62 ± 0.27 | 4.43 ± 0.18 |  | 
29 | LTENTAENRELYIKTTLRELLVYI [PKD2L1] | 2.31 ± 0.36 | 2.45 ± 0.33 |  | 
30 | LHSACGLSKDHQEVETEGPESADT [TOR1AIP2] | 5.36 ± 0.26 | 5.53 ± 0.16 |  | 
31 | PLSVHRPPTSGCLGPVPREDQAEA [TSPAN10] | 5.23 ± 0.17 | 5.1 ± 0.075 |  | 
32 | LTDGHFENILADNSVNDQTKILVV [SERPINB5] | 3.09 ± 0.44 | 3.67 ± 0.29 |  | 
33 | TSVLATLVVFAVLGFKANIMNEKC [SLC6A17] | 2.66 ± 0.12 | 3.31 ± 0.11 |  | 
34 | RAALICLTLVLVASVLLQAVLYPR [CD207] | 2.44 ± 0.55 | 2.59 ± 0.53 |  | 
35 | SSLCYKQRIKSQERETEATRGRGG [MOG] | 5 ± 0.27 | 5.06 ± 0.32 |  | 
36 | ILSKMPKPKPPPNSEGEQGPNGSQ [CCNC] | 5.07 ± 0.23 | 5.1 ± 0.12 |  | 
37 | LPLTARWEYMHSPSENSKEAEILE [CPOX] | 4.94 ± 0.32 | 5.02 ± 0.17 |  | 
38 | QLPIDRGGGEGKAMYIDTEGTFRP [RAD51] | 4.16 ± 0.15 | 4.05 ± 0.24 |  | 
39 | HGDYFRLLLPGIYTVSATAPGYDP [CPN1] | 2.78 ± 0.71 | 2.48 ± 0.48 |  | 
40 | GVGAYGTVYKARDPHSGHFVALKS [CDK4] | 2.89 ± 0.12 | 3.05 ± 0.32 |  | 
41 | PSGEEEAKVGPGLPDGCQPLQLLR [CBY2] | 4.75 ± 0.22 | 4.79 ± 0.27 |  | 
42 | TTEQHVPEVEVQVKRRRTASLSNQ [SNURF] | 5.25 ± 0.27 | 5.23 ± 0.17 |  | 
43 | LFGGFADFGSAAASGSFPSQVTAT [CLINT1] | 2.71 ± 0.37 | 3.02 ± 0.33 |  | 
44 | KKHNVTAVVRLNKKIYEAKRFTDA [CDC14A] | 2.73 ± 0.2 | 2.49 ± 0.24 |  | 
45 | LAIFKSGGIPALVKMLGSPVDSVL [CTNNB1] | 2.28 ± 0.36 | 2.14 ± 0.35 |  | 
46 | YKYGAIRDIDLKNRRGGPPFAFVE [SRSF1] | 2.38 ± 0.31 | 2.62 ± 0.36 |  | 

Row | Sequence | protein stability index [1] | protein stability index [2] | protein stability index (treatment: DMSO, c terminus: native) | protein stability index (treatment: MLN4924 1 uM, 8 h, c terminus: native)
47 | YQGPGTRRLQEVLGVQTGGPGGRR [DYRK1B] | 3.59 ± 0.39 | 3.94 ± 0.36 |  | 
48 | QPSFPEILLESHMVMIRGNSGLKP [POMT2] | 2.79 ± 0.3 | 3.07 ± 0.21 |  | 
49 | TDAGKAFCMFYAVLGIPLTLVMFQ [KCNK9] | 3.35 ± 0.4 | 3.06 ± 0.31 |  | 
50 | EEEAGQTSIEPSKSSIIPFRALKR [ZER1] | 4.87 ± 0.26 | 5.09 ± 0.16 |  | 
51 | LSKQAKFAYKDEYEKFKLYLTIIL [TMEM120A] | 2.61 ± 0.36 | 2.48 ± 0.54 |  | 
52 | LGLNAAFWFFALTSLRLVFLLAFG [RETREG3] | 3.06 ± 0.41 | 3.35 ± 1.4 |  | 
53 | FDYEYDWIGKQLPTPVGAVQQDPA [CSNK1G3] | 3.63 ± 0.2 | 3.65 ± 0.44 |  | 
54 | NKLQYHAGLASGLLNQQSLKRSAN [MED27] | 3.47 ± 0.25 | 3.51 ± 0.29 |  | 
55 | PPPDAAATAASSSASSPASVGDPC [SLC25A25] | 5.39 ± 0.14 | 5.58 ± 0.13 |  | 
56 | DAEFLCVFCREGPTHQAHTVGFLD [TRIM15] | 2.31 ± 0.27 | 2.34 ± 0.33 |  | 
57 | LLPRQPLPLGIKVYEDETKVVHAV [PALM] | 3.47 ± 0.28 | 3.48 ± 0.12 |  | 
58 | AFKAAALIQRWYRRYVARLEMRRR [PPEF2] | 3.55 ± 0.57 | 4.15 ± 0.59 |  | 
59 | TEKDLLEDGFGEHPFYHCLVAEVP [SAT1] | 3.35 ± 0.32 | 3.41 ± 0.37 |  | 
60 | LTRPEPVHEFCAGRECQPRWETSS [ADAMTSL2] | 3.76 ± 0.15 | 3.98 ± 0.42 |  | 
61 | SLIQLLGRNFILFIIFGTMEEMQN [HACD3] | 2.92 ± 0.67 | 3.01 ± 1.3 |  | 
62 | KYEKLRGDVAIKLKFLEENKIKVM [ARFIP2] | 2.22 ± 0.37 | 2.48 ± 0.27 |  | 
63 | VGGEAVEVEEVENVQTEFPGEDEN [TRIM55] | 5.74 ± 0.2 | 5.61 ± 0.34 |  | 
64 | NLAKEQLSRENIQSSLLETLYRNR [PPEF2] | 3.05 ± 0.28 | 3.22 ± 0.12 |  | 
65 | EDSSLPSINALLQAEVLSRQITSP [HNF4A] | 4.25 ± 0.16 | 4.27 ± 0.093 |  | 
66 | VLGVADGVGGWRDYGVDPSQFSGT [PPTC7] | 3.51 ± 0.24 | 4 ± 0.088 |  | 
67 | EEVVSFVKKNVLVTGGFFGGFLLG [FUNDC2] | 2.36 ± 0.68 | 2.61 ± 0.73 |  | 
68 | VNKYYPPDFNPEKHGSLNRYHNSH [YJU2B] | 3.41 ± 0.21 | 3.21 ± 0.39 |  | 
69 | ERSGCALTDAVAPGNKGRGQRGNT [TCF25] | 5.22 ± 0.11 | 5.23 ± 0.13 |  | 

Row | Sequence | protein stability index [1] | protein stability index [2] | protein stability index (treatment: DMSO, c terminus: native) | protein stability index (treatment: MLN4924 1 uM, 8 h, c terminus: native)
70 | FVSALGITAGAHRLWSHRSYKARL [SCD] | 2.73 ± 0.93 | 2.5 ± 0.24 |  | 
71 | FMEERELLGQDEETAMRKSLGEEE [RSPH3] | 5.58 ± 0.12 | 5.46 ± 0.4 |  | 
72 | HSYMGMRGFCAFLGSWLVPFAYLT [POMT2] | 2.96 ± 0.86 | 3.04 ± 0.62 |  | 
73 | FEFQVRVCDSCYDSIKDEDRTSLA [WDFY1] | 2.78 ± 0.23 | 3 ± 0.61 |  | 
74 | NFARLQTCISELRMLQREGCFRSQ [M1AP] | 2.15 ± 0.31 | 2.13 ± 0.2 |  | 
75 | KNTEVSSMECEKNLYWICNKPYK [CD69] |  |  | 2.97 ± 0.2 | 2.86 ± 0.61
76 | WVCFIYTIMSLASLLFVVMFIPET [SLC2A12] | 3.06 ± 0.83 | 2.74 ± 0.52 |  | 
77 | HFCVDDTKLLSGSYDCTVKLWDPV [WDR88] | 2.65 ± 0.24 | 2.58 ± 0.23 |  | 
78 | IDILWRQDIDLGAGREVFDYSHRQ [NFE2L1] | 2.24 ± 1 | 2.49 ± 0.34 |  | 
79 | HWATGYSKSSHPLIRSLFHGFLFM [SOAT1] | 2.86 ± 0.7 | 2.49 ± 0.56 |  | 
80 | KLHDFFSYLMDHFIPSSHNDRDFL [PPEF2] | 2.46 ± 0.51 | 2.53 ± 0.64 |  | 
81 | SERDSEAAKQNHVTADDFVQTSVI [EHMT1] | 5.34 ± 0.45 | 5.35 ± 0.34 |  | 
82 | GKNNEFSRLVAGEYLSFFDFSGLT [PSD2] | 2.13 ± 0.41 | 2.13 ± 0.32 |  | 
83 | EQLEAEAQALRQELERQRRLLGSV [PBXIP1] | 4.04 ± 0.22 | 4.02 ± 0.21 |  | 
84 | GRTHSACDALRTLAEARRLFPGRV [RSAD1] | 2.99 ± 0.29 | 3.44 ± 0.29 |  | 
85 | QNLNDRLASYLEKVRALEEANADL [KRT13] | 4.13 ± 0.17 | 3.98 ± 0.39 |  | 
86 | TSETSHSPLYADPYTPPATSHRRV [PLEKHN1] | 4.39 ± 0.12 | 4.34 ± 0.08 |  | 
87 | DVTAKNIWLAESVLDILTEQREWV [INTS3] | 2.3 ± 0.24 | 2.65 ± 0.33 |  | 
88 | SSFQDLLGDALAGPPRAPGRSGWP [HES6] | 3.13 ± 0.12 | 3.11 ± 0.18 |  | 
89 | ASLHPSVSPGSPPPPLPNHKYNTT [PLAGL1] | 4.58 ± 0.14 | 4.586 ± 0.043 |  | 
